In IntAct's records for PubMed 22939626:

Molecular target: vira_shifl virA (UniProt Q7BU69)
Sequence (Q7BU69 whole entry): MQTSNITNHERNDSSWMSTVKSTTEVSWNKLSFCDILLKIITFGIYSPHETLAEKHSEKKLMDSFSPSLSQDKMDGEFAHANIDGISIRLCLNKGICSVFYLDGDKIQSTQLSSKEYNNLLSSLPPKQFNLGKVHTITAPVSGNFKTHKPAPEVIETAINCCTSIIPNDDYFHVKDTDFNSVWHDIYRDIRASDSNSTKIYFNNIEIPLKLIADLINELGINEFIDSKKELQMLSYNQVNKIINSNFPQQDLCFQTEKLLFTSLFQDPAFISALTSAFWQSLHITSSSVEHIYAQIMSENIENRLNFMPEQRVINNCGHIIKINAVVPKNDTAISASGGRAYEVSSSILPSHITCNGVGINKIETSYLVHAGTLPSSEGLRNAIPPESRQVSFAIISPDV

Chain of Ras-related protein Rab-1A (Homo sapiens), P62820 S25N (P62820 whole entry S25N): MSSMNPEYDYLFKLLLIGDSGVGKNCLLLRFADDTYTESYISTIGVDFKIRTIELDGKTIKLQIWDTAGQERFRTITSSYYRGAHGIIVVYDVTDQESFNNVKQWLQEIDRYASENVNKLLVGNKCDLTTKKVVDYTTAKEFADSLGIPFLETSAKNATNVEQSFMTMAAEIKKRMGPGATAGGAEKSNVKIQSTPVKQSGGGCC
Chain of Ras-related protein Rab-1A (Homo sapiens), P62820 Q70L (P62820 whole entry Q70L): as the sequence (P62820 whole entry S25N) above, with N25S, Q70L counted along it

Substance	effect of a mutation on the interaction
Ras-related protein Rab-1A (Homo sapiens), P62820 S25N	decreasing interaction strength
Ras-related protein Rab-1A (Homo sapiens), P62820 Q70L	increasing interaction strength
